Test results reported in patent US20170204167A1 (INSTITUTE FOR RESEARCH IN BIOMEDICINE, published 2017).

B1: FI6 variant 2 (antibody, V domains shown)
VH: QVQLVQSGGGVVQPGRSLRLSCVASGFTFSTYAMHWVRQAPGRGLEWVAVISYDGNYKYYADSVKGRFSISRDNSNNTLHLEMNTLRTEDTALYYCAKDSQLRSLLYFEWLSQGYFDPWGQGTLVTVTS
VL: DIQMTQSPDSLAVSLGARATINCKSSQSVTFNYKNYLAWYQQKPGQPPKVLIYWASARESGVPDRFSGSGSGTDFTLTISSLQAEDVAVYYCQQHYRTPPTFGQGTKVEIK
B2: FI28 variant 1 (antibody, V domains shown)
VH: EVQLVESGGGAVQPGESLKLSCAASGFTFSNYGMHWVRQAPGKGLEWVAVISYDGSNKYYADSVKGRFTISRDNSKDTLYLQMNSLRAEDTALFYCAKERPLRLLRYFDWLSGGANDYWGQGTLVTVSS
VL: DIVMTQSPDSLAVSLGERATINCKSSQSVLYSSNNKNYLAWYQQKPGQPPKLLIDWASTRESGVPDRFSGSGSGTDFTLTISNLQVEDVAVYYCQQYYRSPSFGQGTKLEIK
B3: FI6 variant 3 (antibody, V domains shown)
VH: QVQLVESGGGVVQPGRSLRLSCAASGFTFSTYAMHWVRQAPGKGLEWVAVISYDANYKYYADSVKGRFTISRDNSKNTLYLQMNSLRAEDTAVYYCAKDSQLRSLLYFEWLSQGYFDYWGQGTLVTVSS
VL: not shown

Legend:
[1] = target: T1, HA of H7N1 A/ck/FPV/Rostock/34 (influenza A virus H7N1 …, UniProt P03459 19-563); assay: cell-based or functional assay
HA of H5N1 A/AH/1/05 = HA of H5N1 A/AH/1/05 (influenza A virus H5N1 A/AH/1/05); assay: cell-based or functional assay
HA of H5N1 A/HK/491/97 = HA of H5N1 A/HK/491/97 (influenza A virus H5N1 A/HK/491/97); assay: cell-based or functional assay
HA of H5N1 A/WS/MONG/05 = HA of H5N1 A/WS/MONG/05 (influenza A virus H5N1 A/WS/MONG/05); assay: cell-based or functional assay
HA of H5N1 A/INDO/5/05 = HA of H5N1 A/INDO/5/05 (influenza A virus H5N1 A/INDO/5/05); assay: cell-based or functional assay
[2] = target: HA of H7N1 A/ck/IT/13474/99 (influenza A virus H7N1 A/ck/IT/13474/99); assay: cell-based or functional assay
HA of H5N1 A/HK/213/03 = HA of H5N1 A/HK/213/03 (influenza A virus H5N1 A/HK/213/03); assay: cell-based or functional assay
[3] = target: HA of H14N5 A/mallard/Astrakhan/263/82 on transfected 293 cells (influenza A virus H14N5 …, UniProt P26136 18-568); assay: staining of HA-transfected 293 cells
[4] = target: HA of H12N5 A/duck/Alberta/60/76 on transfected 293 cells (influenza A virus H12N5 …, UniProt P03446 17-564); assay: staining of HA-transfected 293 cells
[5] = target: T1, HA of H7N1 A/ck/FPV/Rostock/34; assay: cell-based or functional assay; remark: listed apart in the source
HA of H5 A/VN/1194/04 = HA of H5 A/VN/1194/04 (influenza A virus H5 A/VN/1194/04); assay: cell-based or functional assay
[6] = target: HA of H13N6 A/gull/Maryland/704/77 (ELISA antigen) (influenza A virus H13N6 …, UniProt P13103 19-532); assay: ELISA on recombinant or purified HA
[7] = target: HA of H2N2 A/Singapore/1/57 (influenza A virus H2N2 A/Singapore/1/57, UniProt Q67333 16-525); assay: ELISA on recombinant or purified HA
HA of H1N1 A/PR/8/34 = HA of H1N1 A/PR/8/34 (influenza A virus H1N1 A/PR/8/34, UniProt P03452 18-565); assay: cell-based or functional assay
[8] = target: HA of H4N6 A/duck/Czechoslovakia/56 (ELISA antigen) (influenza A virus H4N6 …, UniProt P19696 17-527); assay: ELISA on recombinant or purified HA

Binder | Neutralization of HA-pseudotypes (IC90, µg/ml) [1] | Neutralization of HA-pseudotypes (IC90, µg/ml) (HA of H5N1 A/AH/1/05) | Neutralization of HA-pseudotypes (IC90, µg/ml) (HA of H5N1 A/HK/491/97) | Neutralization of HA-pseudotypes (IC90, µg/ml) (HA of H5N1 A/WS/MONG/05) | Neutralization of HA-pseudotypes (IC90, µg/ml) (HA of H5N1 A/INDO/5/05) | Neutralization of HA-pseudotypes (IC90, µg/ml) [2] | Neutralization of HA-pseudotypes (IC90, µg/ml) (HA of H5N1 A/HK/213/03) | binding result [3] | binding result [4] | Neutralization H7 A/ck/FPV Rostock/34 IC50 (µg/ml), pseudovirus [5] | Neutralization H5 A/VN/1194/04 IC50 (µg/ml), pseudovirus (HA of H5 A/VN/1194/04) | EC50 [6] | EC50 [7] | Neutralization of infectious viruses (IC50, µg/ml) (HA of H1N1 A/PR/8/34) | EC50 [8]
B1 | 0.09 µg/mL | 0.05 µg/mL | 0.07 µg/mL | 0.03 µg/mL | 0.31 µg/mL | 1.87 µg/mL | 0.02 µg/mL | binds | binds | 0.02 µg/mL | 0.0054 µg/mL | 0.088 µg/mL | 0.029 µg/mL | 2.2 µg/mL | –
B2 | > 100 µg/mL | 0.05 µg/mL | 0.05 µg/mL | 0.04 µg/mL | 0.35 µg/mL | > 100 µg/mL | 0.33 µg/mL | – | – | – | – | – | – | > 100 µg/mL | –
B3 | – | – | – | – | – | – | – | binds | binds | 0.0274 µg/mL | 0.0035 µg/mL | 0.062 µg/mL | 0.021 µg/mL | – | 0.185 µg/mL
